Results published in patent publication US20240018206A1.

Target: IL-1 receptor (IL-1R1) on A375.s2 cells (UniProt P14778)
Test: cell-based or functional assay

UniProt P14778, sequence (P14778 18-569 limits assumed): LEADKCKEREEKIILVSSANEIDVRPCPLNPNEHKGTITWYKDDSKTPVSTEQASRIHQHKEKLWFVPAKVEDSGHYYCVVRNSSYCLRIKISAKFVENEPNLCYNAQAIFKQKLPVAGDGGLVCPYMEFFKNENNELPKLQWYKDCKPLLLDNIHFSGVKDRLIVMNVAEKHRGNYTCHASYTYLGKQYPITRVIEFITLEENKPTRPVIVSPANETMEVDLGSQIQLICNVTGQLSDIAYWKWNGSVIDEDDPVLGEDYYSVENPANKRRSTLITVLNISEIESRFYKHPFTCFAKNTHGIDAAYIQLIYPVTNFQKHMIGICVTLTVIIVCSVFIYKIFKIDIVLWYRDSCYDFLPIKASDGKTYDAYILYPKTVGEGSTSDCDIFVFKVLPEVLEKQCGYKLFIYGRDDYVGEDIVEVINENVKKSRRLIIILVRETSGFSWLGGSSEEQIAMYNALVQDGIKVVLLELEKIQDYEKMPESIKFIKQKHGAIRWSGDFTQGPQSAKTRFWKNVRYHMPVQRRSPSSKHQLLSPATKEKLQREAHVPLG

IL1RN activity IC50 [µg/mL]	IC50(µg/ml), inhibition of IL-1β induced A375.s2 apoptosis (MTS, 490 nM) [µg/mL]	biological activity relative to the wild type [fold]	Substance
0.714	–	–	IL-1RN-TNFR2-Fc dual-target fusion protein (IL-1RN D74N, TNFR2, hIgG4 Fc S228P) (Fc fusion)
0.333	–	–	IL-1RN-Fc, single-target comparator of Table 4 (from UniProt P18510 26-177) (Fc fusion)
–	4.85	3	IL-1RN D74N-Fc without linker (from UniProt P18510 26-177) (Fc fusion)
–	12.1	–	Wild-type IL-1RN-Fc of Table 2 (from UniProt P18510 26-177) (Fc fusion)
